Data on 4 molecules can be found in patent publication US20220235103A1 (Molecular Partners, published 2022).

Holding throughout (assay): cell-based or functional assay
The target in assay [1] is T1, SARS-CoV-2 spike protein D614G (SARS-CoV-2, UniProt P0DTC2 14-1273).
The target of assay [2] is SARS-CoV-2 spike protein D614G x Q675H (SARS-CoV-2, UniProt P0DTC2 14-1273).
Assay [3] deals with T2, SARS-CoV-2 spike protein V483A (SARS-CoV-2, UniProt P0DTC2 14-1273).
Assay [4] has as its target T3, SARS-CoV-2 spike protein, wild type (Wuhan) (SARS-CoV-2, UniProt P0DTC2 14-1273).
Assay [5] has as its target SARS-CoV-2 spike protein G476S (SARS-CoV-2, UniProt P0DTC2 14-1273).
In assay [6] the target is T4, spike protein of live SARS-CoV-2 (2019-nCoV/IDF0372/2020) (SARS-CoV-2, UniProt P0DTC2 14-1273).
In assay [7] the target is T3, SARS-CoV-2 spike protein, wild type …. This is another data set of the same source.
Assay [8] has as its target SARS-CoV-2 spike protein P479S (SARS-CoV-2, UniProt P0DTC2 14-1273).
The target in assay [9] is SARS-CoV-2 spike protein N501Y (SARS-CoV-2, UniProt P0DTC2 14-1273).
In assay [10] the target is SARS-CoV-2 spike protein K417E (SARS-CoV-2, UniProt P0DTC2 14-1273).
The target of assay [11] is SARS-CoV-2 spike protein F486V (SARS-CoV-2, UniProt P0DTC2 14-1273).
The target of assay [12] is T1, SARS-CoV-2 spike protein D614G. The source holds these as a separate data set.
In assay [13] the target is SARS-CoV-2 spike protein E484K (SARS-CoV-2, UniProt P0DTC2 14-1273).
The target of assay [14] is SARS-CoV-2 spike protein F490S (SARS-CoV-2, UniProt P0DTC2 14-1273).
The target of assay [15] is SARS-CoV-2 spike protein N439K (SARS-CoV-2, UniProt P0DTC2 14-1273).
For assay [16], the target named is SARS-CoV-2 spike protein T478I (SARS-CoV-2, UniProt P0DTC2 14-1273).
In assay [17] the target is SARS-CoV-2 spike protein Q493K (SARS-CoV-2, UniProt P0DTC2 14-1273).
In assay [18] the target is SARS-CoV-2 spike protein S477N (SARS-CoV-2, UniProt P0DTC2 14-1273).
In assay [19] the target is T2, SARS-CoV-2 spike protein V483A. This is another data set of the same source.
Assay [20] has as its target SARS-CoV-2 spike protein Y453F (SARS-CoV-2, UniProt P0DTC2 14-1273).
In assay [21] the target is T3, SARS-CoV-2 spike protein, wild type …. The source holds these as a separate data set.
Assay [22] addresses SARS-CoV-2 spike protein variant B.1.351 (SARS-CoV-2, UniProt P0DTC2 14-1273).
For assay [23], the target named is T3, SARS-CoV-2 spike protein, wild type …. This is another data set of the same source.
Assay [24] concerns the target T4, spike protein of live SARS-CoV-2 …. The source holds these as a separate data set.

B1: ALE058 (designed binder)
chain: MRGSHHHHHHGSDLGKKLLEAARAGQDDEVRELLKAGADVNAKDYFSHTPLHLAARNGHLKIVEVLLKAGADVNAKDFAGKTPLHLAANEGHLEIVEVLLKAGADVNAQDIFGKTPADIAADAGHEDIAEVLQKAAGSPTPTPTTPTPTPTTPTPTPTGSDLGKKLLEAARAGQDDEVRELLKAGADVNAKDYFSHTPLHLAARNGHLKIVEVLLKAGADVNAKDFAGKTPLHLAANEGHLEIVEVLLKAGADVNAQDIFGKTPADIAADAGHEDIAEVLQKAAGSPTPTPTTPTPTPTTPTPTPTGSDLGKKLLQAARAGQLDEVRELLKAGADVNAKDQEGITPLHVAAHQGHLEIVEVLLKAGADVNAKDVWGRTPLHLAAWRGHLEIVEVLLKAGADVNAKDHAGATPLHAAALSGHLEIVEVLLKAGADVNAQDKSGKTPADLAARAGHQDIAEVLQKAAGSPTPTPTTPTPTPTTPTPTPTGSDLGHKLLLAAQAGQDDEVRILLAAGADVNAKDVFGQTPLHVAAVAGHLEIVEVLLKAGADVNAKDSIGYTPLHHAARVGHLEIVEVLLKAGADVNAQDWIGITPADLAAFEGHEDIAEVLQKAAGSPTPTPTTPTPTPTTPTPTPTGSDLGQKLLHAAQYGQDDEVRILLAAGADVNAKDKQGNTPLHIAAFHGHLEIVEVLLKAGADVNAKDQWGLTPLHLAAAWGHLEIVEVLLKAGADVNAQDNYGQTPADLAAESGHEDIAEVLQKAA
B1: the “Potency of inhibition of SARS-CoV-2 spike protein variants (IC50)” value in [1] is 4.64 pM; in assay [2], 22.4 pM; in [3], 32.4 pM; in [4], 5.48 pM; in [5] it was 14.5 pM. For the same molecule, the “IC50 LV (live virus cytopathic effect assay)” value in assay [6] was 100 pM. In [7], the “IC50 (read off the curve), SARS-CoV-2 VSV pseudotype virus, no competitor” value was roughly 100 pM.

B2: vS07_23E04 (designed binder)
chain: MRGSHHHHHHGSDLGKKLLQAARAGQLDEVRELLKAGADVNAKDQEGITPLHVAAHQGHLEIVEVLLKAGADVNAKDVWGRTPLHLAAWRGHLEIVEVLLKAGADVNAKDHAGATPLHAAALSGHLEIVEVLLKAGADVNAQDKSGKTPADLAARAGHQDIAEVLQKAA
notes: also called R3c
With B2, the “VSV Pseudotype Neutralization Assay IC50” value in assay [8] is 27.6 ng/mL; in [9], 27.8 ng/mL; in assay [10], 3.6 ng/mL; in [11], greater than 100 ng/mL; in [12] it was 23 ng/mL; in assay [13], greater than 100 ng/mL. In addition, the “VSV Pseudotype Neutralization Assay IC50” value in [14] was 8.1 ng/mL; in assay [15], 12.9 ng/mL; in [16] it was 16.7 ng/mL; in assay [17], 45.8 ng/mL; in [18], 9 ng/mL; in [19] it was 21.3 ng/mL. Besides, the results for the “VSV Pseudotype Neutralization Assay IC50” value in assay [20], in assay [21] and in assay [22] were 3.3 ng/mL, 13.3 ng/mL and greater than 100 ng/mL, respectively. Moreover, in assay [23], the “VSV-SARS-CoV-2 IC50” value is less than 2000 pM. Besides, the “protection of Vero E6 cells from SARS-CoV-2 cytopathic effect” value (shortened to “protection of Vero E6 cells”) in assay [24] is 20 nM.

B3: vS07_12C06 (designed binder)
chain: MRGSHHHHHHGSDLGKKLLQAARAGQLDEVRELLKAGADVNAKDREGKTPLHVAAQEGHLEIVEVLLKAGADVNAKDVWGRTPLHLAAWIGHLEIVEVLLKAGADVNAKDVSGATPLHAAALHGHLEIVEVLLNAGADVNAQDKSGKTPADLAARAGHQDIAEVLQKAA
notes: also called R1b; Rb1
B3: the “VSV Pseudotype Neutralization Assay IC50” value is 2.3 ng/mL in assay [8]; 4.8 ng/mL in assay [9]; 1 ng/mL in assay [10]; greater than 100 ng/mL in assay [11]; 6.2 ng/mL in [12]; 10.2 ng/mL in assay [13]. Further, the “VSV Pseudotype Neutralization Assay IC50” value in [14] was 1.7 ng/mL; in assay [15], 5.3 ng/mL; in [16], 3.1 ng/mL; in assay [17], 28.2 ng/mL; in assay [18], 2 ng/mL; in [19] it was 8.4 ng/mL. Further, the “VSV Pseudotype Neutralization Assay IC50” value was 5.9 ng/mL in assay [20], 2.1 ng/mL in assay [21] and 26 ng/mL in assay [22]. For the same molecule, the “VSV-SARS-CoV-2 IC50” value in assay [23] is less than 2000 pM. In addition, in [24], the “protection of Vero E6 cells” value turned out to be 2 nM.

B4: vS07_29B10 (designed binder)
chain: MRGSHHHHHHGSDLGKKLLQAARAGQLDEVRELLKAGADVNAKDREGITPLHLAAQHGHLEIVEVLLKAGADVNAKDVWGRTPLHLAAWQGHLEIVEVLLKAGADVNAKDLAGATPLHVAALYGHLEIVEVLLKAGADVNAQDKSGKTPADLAARAGHQDIAEVLQKAA
notes: also called R3b
Regarding B4, the “VSV Pseudotype Neutralization Assay IC50” value in assay [8] was 7.2 ng/mL; in [9], 9.1 ng/mL; in assay [10], 1.8 ng/mL; in assay [11], greater than 100 ng/mL; in assay [12], 11.9 ng/mL; in assay [13] it was 64.2 ng/mL. In addition, the “VSV Pseudotype Neutralization Assay IC50” value worked out at 2.3 ng/mL in assay [14]; 7.3 ng/mL in assay [15]; 11.2 ng/mL in assay [16]; 30 ng/mL in [17]; 3 ng/mL in [18]; 21.8 ng/mL in assay [19]. The “VSV Pseudotype Neutralization Assay IC50” value stood at 10.9 ng/mL in assay [20], 7.2 ng/mL in assay [21] and 76 ng/mL in [22]. Moreover, the “VSV-SARS-CoV-2 IC50” value in [23] is less than 2000 pM. Besides, the “protection of Vero E6 cells” value in [24] turned out to be 20 nM.
